According to patent publication US20240287172A1 (SCIRHOM, published 2024):
Positions count from the first letter of the chain named.

B1: antibody 3 (antibody, V domains shown)
VH: QVTLKESGPGILQPSQTLSLTCSFSGFSLTTFAMGIGWVRQPSGKGLEWLAHIWWDGEKYNNPVLKSRLTISKDTSKNQVFLRIANVDTPDTATYYCARISSIYYIIDNWGQGTSVTVSS
VL: DIVLTQSPATLSVTPGHSVSLSCRASQSISNNLHWYQKKSHESPRLLIKYVSQSISGIPSRFSGSGSGTDFTLSINSVETEDFGMYFCQQSYNWPLTFGAGTKLELK
notes: mouse IgG, kappa light chain; also called clone #3; purified antibody 3
B2: antibody 34 (antibody, V domains shown)
VH: QVTLKESGPGILQPSQTLSLTCSFSGFSLSTFSLGVGWIRQSSGKGLEWLAHIWWDDEKYYNPALKSRLTISKDTSKNQVFLKIANVDAADTATYYCARAYYSKSYYALDYWGQGTSVTVSS
VL: DIQMTQSPSSLSASLGERVSLTCRASQEISGYLSWLQQKPDGTIKRLIYAASTLDSGVPKRFSGSRSGSDYSLAISSLESEDFADYYCLQYANFPFTFGSGTKLEIK
notes: mouse IgG, kappa light chain; also called clone #34; purified antibody 34

Legend:
[1] = biological target: T1, hiR2-FL-K573A-T7 (human, UniProt Q6PJF5 1-856); assay: FACS on MEF-DKO cells expressing the variant, 3 µg/ml antibody
T1 sequence: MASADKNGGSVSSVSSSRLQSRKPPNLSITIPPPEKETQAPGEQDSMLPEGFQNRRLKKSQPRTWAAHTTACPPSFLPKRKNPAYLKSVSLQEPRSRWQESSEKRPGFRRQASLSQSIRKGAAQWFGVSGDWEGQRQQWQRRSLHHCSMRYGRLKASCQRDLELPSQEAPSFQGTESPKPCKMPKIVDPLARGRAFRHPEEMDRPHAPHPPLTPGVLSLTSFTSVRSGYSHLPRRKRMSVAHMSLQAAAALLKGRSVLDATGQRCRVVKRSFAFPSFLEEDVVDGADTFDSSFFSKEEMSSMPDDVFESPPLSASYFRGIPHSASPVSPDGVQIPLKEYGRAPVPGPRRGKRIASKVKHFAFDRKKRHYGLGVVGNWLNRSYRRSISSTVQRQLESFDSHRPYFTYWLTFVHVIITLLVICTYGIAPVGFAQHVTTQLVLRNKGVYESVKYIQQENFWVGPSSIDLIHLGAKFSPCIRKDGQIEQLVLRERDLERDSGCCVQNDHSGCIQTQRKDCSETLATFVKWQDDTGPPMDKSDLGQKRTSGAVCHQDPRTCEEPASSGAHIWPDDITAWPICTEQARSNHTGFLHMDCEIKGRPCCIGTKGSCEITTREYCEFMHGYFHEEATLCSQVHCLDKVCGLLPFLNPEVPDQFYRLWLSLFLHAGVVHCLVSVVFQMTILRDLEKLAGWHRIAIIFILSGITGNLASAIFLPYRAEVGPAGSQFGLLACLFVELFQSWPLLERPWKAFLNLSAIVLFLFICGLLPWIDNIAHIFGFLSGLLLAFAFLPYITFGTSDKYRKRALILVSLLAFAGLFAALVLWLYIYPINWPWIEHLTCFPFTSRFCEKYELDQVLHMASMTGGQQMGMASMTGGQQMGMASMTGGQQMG
In short: (§1)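 Primary stain: antibody 3 μg/ml, 1 h on ice; controls buffer alone. Secondary: PE anti-mouse IgG F(ab′)2 1:100, 1 h on ice, light-protected. Washes at 4° C; read by flow cytometry.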

[2] = biological target: T2, hiR2-FL-I566A-T7 (human, UniProt Q6PJF5 1-856); assay: as above
T2 sequence: T1 sequence with I566A, A573K
In short: as §1

Binder | loss of binding vs wild type [1] [%] | loss of binding vs wild type [2] [%]
B1 | ≥ 30 | 
B2 |  | ≥ 30
